# Measurements as given in the DeepSol protein solubility set.
# Assay: soluble on expression in E. coli; label from the status in PepcDB or PDB records
row,Sequence,soluble on expression in E. coli
1,MCTRVVYSGSNGMVATGRSMDWKTDMHSNLWVFPRGMKRNGETGENSLEWTSRYGSVVTSAFEIASTDGMNEKGLVANLLWLPETEYPVRDKNKPGLAITAWVQYMLDNFATVEEAVAYIDEDTFQVVSDMMPDGSRLATLHLSISDATGDCAIFEYIGGKLTVYHSKEYKVMTNSPTYNKQLALSEYWKSIGGLSFLPGTNRAADRFARASFYINALPETDDERIAVASVFSVVRNASVPYGISTPESPEISTTQWRTVSESKNLRYFFESSLTPNTFWVNLKDFDLSEGAPVFKLSIANGEMYHGNTAKNFKTALPFKFMGVKG,not soluble
2,MDANEFHWLMDMLESVEVGLVVLDLDFHVQAWNGFMEHHSGITARQIRDKVLFEVFPDIPEAWLTRKVDAVAMLNTRAFTSWEQRPYLFKFRNTRPITGTEEYMFQNLTISPITAPNGEVEKVCLLVYDVTEFASSKRALERANEQLAKLSMTDRLTGLLNRGTWENLVDAEYERFRRYGQATSLVMFDIDHFKPVNDTYGHLAGDEVIRHTADVTRNNIRQSDSAGRYGGEEFGIILPETDAESARVICERIREAIEKSTVSTSAGDIQYTVSMGIAQLTETPENYMQWMQKADEALYKAKESGRNKVVVSLEHHHHHH,soluble
3,MDAVDATMEKLRAQCLSRGASGIQGLARFFRQLDRDGSRSLDADEFRQGLAKLGLVLDQAEAEGVCRKWDRNGSGTLDLEEFLRALRPPMSQAREAVIAAAFAKLDRSGDGVVTVDDLRGVYSGRAHPKVRSGEWTEDEVLRRFLDNFDSSEKDGQVTLAEFQDYYSGVSASMNTDEEFVAMMTSAWQL,not soluble
4,MDCKELARIFYALSEPKRLCMVKLLLEREELCVCDFMRIFKESQPKISFHLKVLREAGLVTSQKRGKWNYYRLNKEAPVIPCVEKLLKDVKLEEKIQLEVKR,soluble
5,MDDATEQEVFNRMQMTQFEEKRFELVVIRAEDTVVVEPLRQRETCPKCHQILSSELSRLWHQFVHMDAYNGFLDGKFQIQLPDFEFVIPCPFSTCSLLFLDLIDARFHYLLEHQSCQLFCCGVRFSDYKTALEHLQGTGSVETEAWDQQKHFLKPVYICNCCNRTWSSRNEYVAHLHGRDHMCPDPVCKYIFETNEKCIRHFFEQHYKHLFLDSRHLLLNYKYFLRYQEKQEERAYGLYVCTTCQRRFRDNKGFQSHVASQNCEFFDRKFFVQVIACKCGHQFKYCYYQRDVLLRNLPVLREAMEHVEREAPFNNMPEDVCNIYRSIIVVIIDVNQRLINEKFTNYQRTSPLKHSSFTPRQMAKLLLEVVDYFWKIM,not soluble
6,MDDEEKDMADSFQNEVPAARVNIKLDLHTGNAKKKVELPLKLLAVGDYSNGKEQRPLSERDKVDINKNNFNSVMAEFSPAVNLTVEDTLNGNGNEQNIALEFKSLKDFEPEQVAKNIPQLRVLLAMRNLLRDLKSNLLDNATFRRELENILKDPTLSSELRDELAKIAPQENV,soluble
7,MDEEKDLAQRKKEAAERAKQLARERLAARQADEQARSAAETGSLKTPPNSNGSQTETTKGEATEPASANDLALAKKRAAEEARAKAAQLRRQGEAAASGAATGDDLEAAKRKAAEEARAKAAQLRRQREAAAPGAATGDDLEAAKRKAAEEARARAAELRRQREAAESGAEDDLELAKKKAVAAAKARAAALAKQKAAEASGDDDELAKQKAAAAAKAKAAAAAKARAAALAKQQGGAGDEGAKQKAAAAARAKAEETDGGTGRSAAPSPNDPLLEKYVRIIHEHLGSDVLEDAYINRLAKDVPTLVVKKEAYYKVAELLKGHEQLRFDYLSELHGTDFQTHMEVYVHLYSYPNRHPVALKVKIERDNPEVDSLVPLWPGANWPECEAYDLLGIRFRGHPNLIRIFLGEQWVGHPLRKDYEPYDAEV,not soluble
8,MDESIDDVQETRTIAIPLKDSHEDEVIEINCSELPDGEEVLQILEAEEAKLSYWIEVALEYYRQDRVDLFMMILESAGSRAGLEYEGVKQDQMRALDILAAYWMTQGYREKAKDKKSDFFSKATVLFNTADKIAMYEWSHLTVRAWFYLFERDKSTNKYELADQQFNYVVKTNPKNVLPLIGKAVIAFNKKDYKTAIYYFRKAIRQCRHTIADLRVGIGHCFAKMGMMDKAKTAFERAMEIEPYNVSAMCGLGIILLNTYDHDSLKHAVSLFGRSYNLQTDHPVALIHLANHFFFKKEIERAWTLAWHAATYNDCDSIKAEAFYQMGRCRHAQGQFDGAYKYYYQARQANNGEHTLAHYGLGQMYIHRNEIEEAIKCFDTVHKRLPNNTDTMKILGSLYAHVQLNDPAQTAEARQKGRDVLGKYLAVENDDYEACIDLAQLLEATDPKRSLELYENAIDLLVTNESIQPQPEMLNNVGALYMSMKQYEKAEHHFKRAKERLEEQLNTDEGSLLLERRSAPEKSHLLTIRYNLALCLEHLCRTVEAEQMYKDIVKECPGYIDGYLRLGCITRDRHQVYESSLWLKQGVQFDQASPIVWTLIGNLHFAKNEWMPAQKKFEFILSKIFNNKIPDPYSLVALGNVWFEQLLNPSRKKEDEKKYIDRALQMYQKALKLQPKNMYAANGIGCVLAYKRNWNDARDVFSQVRESTSEFYDVWLNIAHVCMEREQWMAAVQMYSSAMKKFRKENDSTLQHYLAKAYYRANMLNEAKEALECAMLDQLDNTQLKFNYAIVLKKSAKEVLRGHKMTSEQVTAAIDDLKFADKIFQYISKNDDRQSSHTGMRISRTICAEEAKNCKDLLTQAKHKLAAAQTQDEEERRLMEKQEKEKIALQNKMIEEARAKEEAEKQKLEDMKNLRLSFIEMTKDVLRLPEIVEEKRRGGGGRKRRNDDGDEFVNDSSDAGNYDGEEGGEDGERRERRKKDKAAKKASRKKRERRDSGGPDSNRRDEKKRKRKEERDRKLQEKLSAKQSAKIKSRAFLSSSESSDDDKPKPAADSSDDEVDPRPPVDEFDSPTRTDSDSDRETTTKKKKKKAVVDSDEGSVSGSGSGSDNDDKPIIGGSDDDDDDKPAGGNSRDSDGSDAPKKKVIESDSD,not soluble
9,MDETTIRRLTEEDVDIFRAMRLEALRTEPAAYASTAADWEKLSADEWRTRLTQNNVFAAFWNDAPVGIMGLMRQGSSKMAHRATLIMVYVRAEARGTGIARALLEAVKSFAGDNGIRQIELAVSAENPAAASFYKRAGFSQIGCVPGGILHEGREIDDIMMACRVDAEGKE,not soluble
10,MDFEKIRKWLEITNEYKQSDFWTNVLKYKAPEHFFDSEASTFVYDFYQDEEYNFIIVEMPGVYEEELTIRLLSKTQLLIKGTITPVFPAEMEVLRERYYGEIERIIQLPEAAETHLLQIQLLNGLLHISYPRQVETVAFNKGLLEHHHHHH,not soluble
11,MDFHLRNKLNLPGNLPQPPNTNLNLPPNVPALLIQSSIKYSELEKFVRRGLHASGVFVIEDPTTTGVAQLKILSERWGDLPTAIDIQGRAQEYSLRYAAIFTLIDGNGEVVVPQQVIELSRDYRSPPVDATGTTTEREILVNELRRDMSASILRRIDSVIRSRLEKRELLEQAKPPSPATSGALEHHHHHH,not soluble
12,MDGCYGISDSVGMITQPYRLYVERTDCKKNMARYYAMEITTTLFGDACLTRSWGRIGKRGQSKMHHFEREEEAVDLFLTLTRQKRSRGYRPATGRDRGLEHHHHHH,not soluble
13,MDGDFRTDFVREPGALKHHPALVLNADYRPLSYYPLSLWPWQEAIKAAWLDRVDIIAEYDEVVRSPSVVLRIPSVVVLKDYVKPQKRVAFTRFNLFLRDEFRCQYCGGKGDLTFDHVVPRAAGGVTSWENVVAACAPCNLRKGSKSLRQANMSLRRPPRRPQAEELQNVGRKFPPNHLHESWMDFLYWDAELDALEHHHHHH,not soluble
14,MDGDFRTSFVREPAGLRPYPALVLNADYRPLSYYPLSLWPWQEAIKAAFLDRVSIVAEYDQVVRSQRAALRIPSVVVLKEFVSPQKRVAFTRFNLFLRDEFRCQYCGAKGDLTFDHVVPRARGGVTSWQNVVAACSPCNLHKGSKTLKQAGMRLARIPREPTPAEMQRHGQRFPPNHLHDSWLDYLYWDAELEALEHHHHHH,not soluble
15,MDGELRALLNAVLERLDVQGVYIEQMRMDIVKLQGSVKQLEDKVDRIQSDVEAMKKDMDAMKKDMDAMKKDMLGVKKDVAALKEGQVRQEKIMERLAIRSIEQEAEIDELRKEISA,not soluble
16,MDGGADLYKPGEPGAMKKPKSVRQERILTELNQAPSLRVAELARRLDVSTETIRRDLDEMTEQGLLNRTYGGAVRSLSTEPSVTERHTLFVGERERIAKAAVQILKGAQVLMIGSGSTTVHTARRIAVEMKNITVLTHSFGVATVLAINPTIKVVMLPGDYHATEGATVGAHAVSFLNSFYADFTILGASGLGPDGPSDALLECGAVYSAMVSRAARTIVVADHSKHDRLFPARYAPWRDIAHVVTDKAPGEDLTESLDSSGVKLTVCLEHHHHHH,soluble
17,MDGHAPTFTSIQDIQGEGASSPFIDGYPYITTEEHFVTGVVSAVTSGLTKGFYLQAIENDNNDKTSEGLFIHTNAADTELKPGDVVCVKGKVQEYYNNTQLSSDATSYVKTGTSDIPLVTPLVIKEGETLRDALERHEGMQVTLNSASDLFVTRNFSYDYDSKRNNMMLSHQAPLFKPTQLHAADSAEAVALAKQNAENRVFLESDAKAPNGKIPYYPEFGQDLDQDGSSEQHIRLGSRVEGLQGVVNYSYNEYRLIATNDVNNTNFVAAGDGFDVERKAAPAIAESDLRVASFNVLNYFTSVALEHHHHHH,not soluble
18,MDGIRVYIETFGCTFNQADSEIMAGVLREEGAVLTGIDDADVIIINTCYVKHPTEHKVINRIKKIQETYPEKGLVVAGCMVEIDPSKLEAISGDASWLGPHQLRRAPQAVRAASNGLVERITGFTSDVKVKVPRVRSNPLIHIIPICEGCNGSCSYCCTRFARGRIQSYPSDLIISEAREAVASGCREIQLTAQDTAAYGVDTGEKLSDIIKGISGIPGNFRIRVGMMHPASVLRDLDGLVEAFKSEKVYSFLHLPVQSGSDSVLADMERGHTVDEFRMIVERFRSEIPDISIATDIIVGYPTEEREDFMDTCSLLEEVKPSFIHLSKYRHRPRARSSSLDEIDFRELRRRSRALEELKMRITEEENRRLVGSFQEILVVERGRKGGFIGRTGSYIPVVTETGEPGSFRRVRIRDATGTYLLADLEHHHHHH,soluble
19,MDGPHGTPVLDRIAKLREELPPPAVPGKGQKTDGRWFDGNGAVRDSVSGKDVDSEEAWRLLRESGIPLPRPPVVAHAEMKVAAAMRRLNVRHAVLVITNVPCDERWSCENLLPAVLPVGCSLSVHGPGYQRTFHGRTPKW,not soluble
20,MDGQADGMFIDRAEDARKQEITEQYLNFLDNQADTFHYRQKIVKMMNDGESRLVMNLDEIREILPERAEGLLTQSVLEMNCLQSALQMAINRSDVQAVVKTGFHVGFEGTFGERHVNPRTLKSSYLGNLVCCEGIVTKCSTVRQKLLTSVHYCPATNKVLEKKFADFTMLDTAVTNNNYPTEDENKNPLETEFGHSVYKDHQTFTIQELPESAPAGQLPRAVDCVADLDLADRVKPGDRVRIIGVFRVLPNKQNGVSSGSFRSIIIINHIQMLSKEVIPNFEPQDVKDVRKISKSRNPFELLARSLAPSICGHEETKKALLCLLLGGMEKILNNGSRLRGDINVLLIGDPSVAKSQLLRYVLRMAPRAITTTGRGSSGVGLTAAVTTDPDSGERRLEAGAMVLADRGVVCIDEFDKMSDIDRTAIHEVMEQGRVTISKAGIHAKLNARCSVLAAANPVYGRYNPFKSPMENIGMQDSLLSRFDLIFVLLDEHDADKDANVAEHVLKLHTYRTQGEADGTVLPMGGGVETISTINMETKKASSSIYEENTQWAGIQDTKILTMDFMRKYIHLARSVQPKLTDEATEYISEVYADIRSFDITKTDQERTMPVTARQLETLIRLSTAIAKARFSKKVEREDTEKAYNLLHFACFKEKPKARQEYEKKKRAPRIDGDDDEDQSDNEDMATSEEPQSSSVPTAATPRRGVRRRAEDDDSQDSMMDTTIGESQPTAKKARTGPAAIGVDRYKELRKYVRKAFDDIGSTDDMVELQIITDSVQTQAGSHKFTEDELKAGYEQLENDNAAMIAEDKITLI,not soluble
